Experimental data from patent US20210355194A1 (TWIST BIOSCIENCE, published 2021).

Molecular target: T1, Acro SARS-CoV-2 (COVID-19) S1 protein (SARS-CoV-2, UniProt P0DTC2 16-685)
T1 construct: also called SARS-CoV-2 S1
Assay: SPR

Row | Binder | Kd
1 | variant 6-24 (Fc fusion) VHH: EVQLVESGGGLVQPGGSLRLSCAASGFTLDYYAMGWFRQAPGKEREFVAAINWSGDNTHYADSVKGRFTISADNSKNTAYLQMNSLKPEDTAVYYCARAPFYCTTTKCQDNYYYMDVWGQGTLVTVSS | 29.9 nM
2 | variant 6-25 (Fc fusion) VHH: EVQLVESGGGLVQPGGSLRLSCAASGLTFGTYTMGWFRQAPGKEREFVAAISRFGSTYYADSVKGRFTISADNSKNTAYLQMNSLKPEDTAVYYCARGGDYDFWSVDYMDVWGQGTLVTVSS | 248 nM
3 | variant 6-28 (Fc fusion) VHH: EVQLVESGGGLVQPGGSLRLSCAASGDTYGSYWMGWFRQAPGKEREFVATITSDDRTNYADSVKGRFTISADNSKNTAYLQMNSLKPEDTAVYYCARVTSSLSGMDVWGQGTLVTVSS | 54.1 nM
4 | variant 6-31 (Fc fusion) VHH: EVQLVESGGGLVQPGGSLRLSCAASGDTFSANRMGWFRQAPGKEREFVASITWSSANTYYADSVKGRFTISADNSKNTAYLQMNSLKPEDTAVYYCATFNWNDEGFDFWGQGTLVTVSS | 39.6 nM
5 | variant 6-32 (Fc fusion) VHH: EVQLVESGGGLVQPGGSLRLSCAASGFTLDYYDMGWFRQAPGKEREFVALISWSGGSTYYADSVKGRFTISADNSKNTAYLQMNSLKPEDTAVYYCATDFYGWGTRERDAFDIWGQGTLVTVSS | 27.2 nM
6 | variant 6-33 (Fc fusion) VHH: EVQLVESGGGLVQPGGSLRLSCAASGTFQRINHMGWFRQAPGKEREFVATINTGGQPNYADSVKGRFTISADNSKNTAYLQMNSLKPEDTAVYYCASLIAAQDYYFDYWGQGTLVTVSS | 76.4 nM
7 | variant 6-34 (Fc fusion) VHH: EVQLVESGGGLVQPGGSLRLSCAASGSAFRSNAMGWFRQAPGKEREFVAHISWSSKSTYYADSVKGRFTISADNSKNTAYLQMNSLKPEDTAVYYCATYCSSTSCFDYWGQGTLVTVSS | 21.3 nM
8 | variant 6-35 (Fc fusion) VHH: EVQLVESGGGLVQPGGSLRLSCAASGFTLAYYAMGWFRQAPGKEREFVAAISMSGDDTIYADSVKGRFTISADNSKNTAYLQMNSLKPEDTAVYYCARELGYSSTVWPWGQGTLVTVSS | 251 nM
9 | variant 6-36 (Fc fusion) VHH: EVQLVESGGGLVQPGGSLRLSCAASGFDFSVSWMGWFRQAPGKEREFVTAITWSGDSTNYADSVKGRFTISADNSKNTAYLQMNSLKPEDTAVYYCASLLHTGPSGGNYFDYWGQGTLVTVSS | 32.1 nM
10 | variant 6-37 (Fc fusion) VHH: EVQLVESGGGLVQPGGSLRLSCAASGHTFSTSWMGWFRQAPGKEREFVATINSLGGTNYADSVKGRFTISADNSKNTAYLQMNSLKPEDTAVYYCARVSSGDYGMDVWGQGTLVTVSS | 22.5 nM
11 | variant 6-38 (Fc fusion) VHH: EVQLVESGGGLVQPGGSLRLSCAASGNTFSGGFMGWFRQAPGKEREFVAVISSLSSKSYADSVKGRFTISADNSKNTAYLQMNSLKPEDTAVYYCAKVDSGYDYWGQGTLVTVSS | 26.6 nM
12 | variant 6-39 (Fc fusion) VHH: EVQLVESGGGLVQPGGSLRLSCAASGFTFSPSWMGWFRQAPGKEREFVAAISWSGGSTAYADSVKGRFTISADNSKNTAYLQMNSLKPEDTAVYYCHGLGEGDPYGDYEGYFDLWGQGTLVTVSS | 11.3 nM
13 | variant 6-40 (Fc fusion) VHH: EVQLVESGGGLVQPGGSLRLSCAASGFTFSDYWMGWFRQAPGKERELVARVWWNGGSAYYADSVKGRFTISADNSKNTAYLQMNSLKPEDTAVYYCAREVLRQQVVLDYWGQGTLVTVSS | 44.3 nM
14 | variant 6-41 (Fc fusion) VHH: EVQLVESGGGLVQPGGSLRLSCAASGFTFSTSWMGWFRQAPGKEREFVASINEYGGRNYADSVKGRFTISADNSKNTAYLQMNSLKPEDTAVYYCAGLHYYYDSSGYNPTEYYGMDVWGQGTLVTVSS | 51.5 nM
15 | variant 6-42 (Fc fusion) VHH: EVQLVESGGGLVQPGGSLRLSCAASGDTYGSYWMGWFRQAPGKEREFVAVITSGGSTNYADSVKGRFTISADNSKNTAYLQMNSLKPEDTAVYYCTHVQNSYYYAMDVWGQGTLVTVSS | 10.1 nM
16 | variant 6-43 (Fc fusion) VHH: EVQLVESGGGLVQPGGSLRLSCAASGRTFSSYAMMGWFRQAPGKEREFVASVNWDASQINYADSVKGRFTISADNSKNTAYLQMNSLKPEDTAVYYCTTLGAVYFDSSGYHDYFDYWGQGTLVTVSS | 17.9 nM
17 | variant 6-44 (Fc fusion) VHH: EVQLVESGGGLVQPGGSLRLSCAASGGTFGVYHMGWFRQAPGKEREFIGRITWTDGSTYYADSVKGRFTISADNSKNTAYLQMNSLKPEDTAVYYCFGLLEVYDMTFDYWGQGTLVTVSS | 8.2 nM
18 | variant 6-45 (Fc fusion) VHH: EVQLVESGGGLVQPGGSLRLSCAASGNMFSINAMGWFRQAPGKEREFVTLISWSSGRTSYADSVKGRFTISADNSKNTAYLQMNSLKPEDTAVYYCASLGYCSGGSCFDYWGQGTLVTVSS | 17.5 nM
19 | variant 6-46 (Fc fusion) VHH: EVQLVESGGGLVQPGGSLRLSCAASGLTFSAMGWFRQAPGKEREFVALIRRDGSTIYADSVKGRFTISADNSKNTAYLQMNSLKPEDTAVYYCAALGILFGYDAFDIWGQGTLVTVSS | 18.1 nM
20 | variant 6-47 (Fc fusion) VHH: EVQLVESGGGLVQPGGSLRLSCAASGRTFSMHAMGWFRQAPGKERELVASITYGGNINYADSVKGRFTISADNSKNTAYLQMNSLKPEDTAVYYCAKEGYYDSTGYRTYFQQWGQGTLVTVSS | 43.9 nM
21 | variant 6-49 (Fc fusion) VHH: EVQLVESGGGLVQPGGSLRLSCAASGSTVLINAMGWFRQAPGKEREFVAAISWSPGRTDYADSVKGRFTISADNSKNTAYLQMNSLKPEDTAVYYCARDCSGGSCYSGDYWGQGTLVTVSS | 58.2 nM
22 | variant 6-51 (Fc fusion) VHH: EVQLVESGGGLVQPGGSLRLSCAASGYTYSSYVMGWFRQAPGKEREFVAAISRFGSTYYADSVKGRFTISADNSKNTAYLQMNSLKPEDTAVYYCARDSGEHFWDSGYIDHWGQGTLVTVSS | 35.2 nM
23 | variant 6-52 (Fc fusion) VHH: EVQLVESGGGLVQPGGSLRLSCAASGDTYGSYWMGWFRQAPGKEREVVAAITSGGSTVYADSVKGRFTISADNSKNTAYLQMNSLKPEDTAVYYCARVDSRFDYWGQGTLVTVSS | 31.2 nM
24 | variant 6-53 (Fc fusion) VHH: EVQLVESGGGLVQPGGSLRLSCAASGISINTNVMGWFRQAPGKEREFVAAISTGSVTIYADSVKGRFTISADNSKNTAYLQMNSLKPEDTAVYYCARVDDFGYFDLWGQGTLVTVSS | 140 nM
25 | variant 6-54 (Fc fusion) VHH: EVQLVESGGGLVQPGGSLRLSCAASGFEFENHWMGWFRQAPGKEREYVAHITAGGLSNYADSVKGRFTISADNSKNTAYLQMNSLKPEDTAVYYCGRHWGIYDSSGFSSFDYWGQGTLVTVSS | 144 nM
